Test results: US20220025010A1 (ANTAG THERAPEUTICS, published 2022)
*1 amine or outer side, *2 acyl side, *3 side chain or, on linkers, in order; H or OH if unused. Where no end group is shown, it is not given here. Side-chain parts run from the residue outwards. [ ]: non-standard residue; d: D form. The star is where a group is joined. C18 diacid = O=C(O)CCCCCCCCCCCCCCCCC(=O)*; C16 diacid = O=C(O)CCCCCCCCCCCCCCC(=O)*; γGlu = O=C(O)[C@H](CCC(=O)[*:2])N[*:1]; pGlu = O=C1CC[C@@H](C(=O)O)N1; AEEA = NCCOCCOCC(=O)O

T1: human GIP receptor (human, UniProt P48546 22-466)
T1 sequence (looked up): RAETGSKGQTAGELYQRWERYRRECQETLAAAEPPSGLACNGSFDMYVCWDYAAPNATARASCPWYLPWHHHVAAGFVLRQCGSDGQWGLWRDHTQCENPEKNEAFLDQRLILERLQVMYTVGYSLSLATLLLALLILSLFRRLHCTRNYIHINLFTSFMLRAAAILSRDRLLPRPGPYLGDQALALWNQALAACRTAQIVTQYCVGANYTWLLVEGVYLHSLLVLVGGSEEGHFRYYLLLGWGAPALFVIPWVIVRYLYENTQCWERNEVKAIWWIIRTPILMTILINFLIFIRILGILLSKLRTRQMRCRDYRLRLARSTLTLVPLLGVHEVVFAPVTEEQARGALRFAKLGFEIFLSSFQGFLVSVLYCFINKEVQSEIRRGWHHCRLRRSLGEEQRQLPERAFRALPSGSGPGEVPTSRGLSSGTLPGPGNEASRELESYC

B1: AT277 (peptide)
peptide: SGTFISDYSIAMDRIK([AEEA-AEEA-γGlu-C16 diacid])QQDFVNWLLAQR-OH
modifications: N-terminus assumed
SMILES: CC[C@H](C)[C@H](NC(=O)[C@H](CO)NC(=O)[C@H](Cc1ccc(O)cc1)NC(=O)[C@H](CC(=O)O)NC(=O)[C@H](CO)NC(=O)[C@@H](NC(=O)[C@H](Cc1ccccc1)NC(=O)[C@@H](NC(=O)CNC(=O)[C@@H](N)CO)[C@@H](C)O)[C@@H](C)CC)C(=O)N[C@@H](C)C(=O)N[C@@H](CCSC)C(=O)N[C@@H](CC(=O)O)C(=O)N[C@@H](CCCNC(=N)N)C(=O)N[C@H](C(=O)N[C@@H](CCCCNC(=O)COCCOCCNC(=O)COCCOCCNC(=O)CC[C@H](NC(=O)CCCCCCCCCCCCCCC(=O)O)C(=O)O)C(=O)N[C@@H](CCC(N)=O)C(=O)N[C@@H](CCC(N)=O)C(=O)N[C@@H](CC(=O)O)C(=O)N[C@@H](Cc1ccccc1)C(=O)N[C@H](C(=O)N[C@@H](CC(N)=O)C(=O)N[C@@H](Cc1c[nH]c2ccccc12)C(=O)N[C@@H](CC(C)C)C(=O)N[C@@H](CC(C)C)C(=O)N[C@@H](C)C(=O)N[C@@H](CCC(N)=O)C(=O)N[C@@H](CCCNC(=N)N)C(=O)O)C(C)C)[C@@H](C)CC
B2: AT257 (peptide)
peptide: GGTFISDYSIAMDRIK(C16 diacid)QQDFVNWLLAQR-OH
modifications: N-terminus assumed
SMILES: CC[C@H](C)[C@H](NC(=O)[C@H](CO)NC(=O)[C@H](Cc1ccc(O)cc1)NC(=O)[C@H](CC(=O)O)NC(=O)[C@H](CO)NC(=O)[C@@H](NC(=O)[C@H](Cc1ccccc1)NC(=O)[C@@H](NC(=O)CNC(=O)CN)[C@@H](C)O)[C@@H](C)CC)C(=O)N[C@@H](C)C(=O)N[C@@H](CCSC)C(=O)N[C@@H](CC(=O)O)C(=O)N[C@@H](CCCNC(=N)N)C(=O)N[C@H](C(=O)N[C@@H](CCCCNC(=O)CCCCCCCCCCCCCCC(=O)O)C(=O)N[C@@H](CCC(N)=O)C(=O)N[C@@H](CCC(N)=O)C(=O)N[C@@H](CC(=O)O)C(=O)N[C@@H](Cc1ccccc1)C(=O)N[C@H](C(=O)N[C@@H](CC(N)=O)C(=O)N[C@@H](Cc1c[nH]c2ccccc12)C(=O)N[C@@H](CC(C)C)C(=O)N[C@@H](CC(C)C)C(=O)N[C@@H](C)C(=O)N[C@@H](CCC(N)=O)C(=O)N[C@@H](CCCNC(=N)N)C(=O)O)C(C)C)[C@@H](C)CC
B3: AT353 (peptide)
peptide: FISDYSIAMDKIK(C16 diacid)QQDFVNWLLAQK-NH2
modifications: N-terminus assumed
SMILES: CC[C@H](C)[C@H](NC(=O)[C@H](CO)NC(=O)[C@H](Cc1ccc(O)cc1)NC(=O)[C@H](CC(=O)O)NC(=O)[C@H](CO)NC(=O)[C@@H](NC(=O)[C@@H](N)Cc1ccccc1)[C@@H](C)CC)C(=O)N[C@@H](C)C(=O)N[C@@H](CCSC)C(=O)N[C@@H](CC(=O)O)C(=O)N[C@@H](CCCCN)C(=O)N[C@H](C(=O)N[C@@H](CCCCNC(=O)CCCCCCCCCCCCCCC(=O)O)C(=O)N[C@@H](CCC(N)=O)C(=O)N[C@@H](CCC(N)=O)C(=O)N[C@@H](CC(=O)O)C(=O)N[C@@H](Cc1ccccc1)C(=O)N[C@H](C(=O)N[C@@H](CC(N)=O)C(=O)N[C@@H](Cc1c[nH]c2ccccc12)C(=O)N[C@@H](CC(C)C)C(=O)N[C@@H](CC(C)C)C(=O)N[C@@H](C)C(=O)N[C@@H](CCC(N)=O)C(=O)N[C@@H](CCCCN)C(N)=O)C(C)C)[C@@H](C)CC
B4: AT392 (peptide)
peptide: SGTFISDYSIAMDRIK(C16 diacid)QQDFVNWLLAQR-NH2
modifications: N-terminus assumed
SMILES: CC[C@H](C)[C@H](NC(=O)[C@H](CO)NC(=O)[C@H](Cc1ccc(O)cc1)NC(=O)[C@H](CC(=O)O)NC(=O)[C@H](CO)NC(=O)[C@@H](NC(=O)[C@H](Cc1ccccc1)NC(=O)[C@@H](NC(=O)CNC(=O)[C@@H](N)CO)[C@@H](C)O)[C@@H](C)CC)C(=O)N[C@@H](C)C(=O)N[C@@H](CCSC)C(=O)N[C@@H](CC(=O)O)C(=O)N[C@@H](CCCNC(=N)N)C(=O)N[C@H](C(=O)N[C@@H](CCCCNC(=O)CCCCCCCCCCCCCCC(=O)O)C(=O)N[C@@H](CCC(N)=O)C(=O)N[C@@H](CCC(N)=O)C(=O)N[C@@H](CC(=O)O)C(=O)N[C@@H](Cc1ccccc1)C(=O)N[C@H](C(=O)N[C@@H](CC(N)=O)C(=O)N[C@@H](Cc1c[nH]c2ccccc12)C(=O)N[C@@H](CC(C)C)C(=O)N[C@@H](CC(C)C)C(=O)N[C@@H](C)C(=O)N[C@@H](CCC(N)=O)C(=O)N[C@@H](CCCNC(=N)N)C(N)=O)C(C)C)[C@@H](C)CC
B5: AT357 (peptide)
peptide: YSIAMDKIK(C16 diacid)QQDFVNWLLAQK-NH2
modifications: N-terminus assumed
SMILES: CC[C@H](C)[C@H](NC(=O)[C@H](CO)NC(=O)[C@@H](N)Cc1ccc(O)cc1)C(=O)N[C@@H](C)C(=O)N[C@@H](CCSC)C(=O)N[C@@H](CC(=O)O)C(=O)N[C@@H](CCCCN)C(=O)N[C@H](C(=O)N[C@@H](CCCCNC(=O)CCCCCCCCCCCCCCC(=O)O)C(=O)N[C@@H](CCC(N)=O)C(=O)N[C@@H](CCC(N)=O)C(=O)N[C@@H](CC(=O)O)C(=O)N[C@@H](Cc1ccccc1)C(=O)N[C@H](C(=O)N[C@@H](CC(N)=O)C(=O)N[C@@H](Cc1c[nH]c2ccccc12)C(=O)N[C@@H](CC(C)C)C(=O)N[C@@H](CC(C)C)C(=O)N[C@@H](C)C(=O)N[C@@H](CCC(N)=O)C(=O)N[C@@H](CCCCN)C(N)=O)C(C)C)[C@@H](C)CC

molecular target: GLP1 receptor (UniProt P43220 24-463, limits assumed); assay: cell-based or functional assay

Row | Binder | cAMP antagonism % inhib [%] | cAMP antagonism IC50 [µM] | cAMP antagonism index | cAMP antagonism log IC50 [log M]
1 | B1 | 68 | 6.1 | 561 | -5.2
2 | B2 | 55 | 5.39 | 256 | -5.3
3 | B3 | 43 | 0.169 | 44 | -6.8

molecular target: glucagon receptor (UniProt P47871 26-477, limits assumed); assay: cell-based or functional assay
Sequence (P47871 26-477 limits assumed): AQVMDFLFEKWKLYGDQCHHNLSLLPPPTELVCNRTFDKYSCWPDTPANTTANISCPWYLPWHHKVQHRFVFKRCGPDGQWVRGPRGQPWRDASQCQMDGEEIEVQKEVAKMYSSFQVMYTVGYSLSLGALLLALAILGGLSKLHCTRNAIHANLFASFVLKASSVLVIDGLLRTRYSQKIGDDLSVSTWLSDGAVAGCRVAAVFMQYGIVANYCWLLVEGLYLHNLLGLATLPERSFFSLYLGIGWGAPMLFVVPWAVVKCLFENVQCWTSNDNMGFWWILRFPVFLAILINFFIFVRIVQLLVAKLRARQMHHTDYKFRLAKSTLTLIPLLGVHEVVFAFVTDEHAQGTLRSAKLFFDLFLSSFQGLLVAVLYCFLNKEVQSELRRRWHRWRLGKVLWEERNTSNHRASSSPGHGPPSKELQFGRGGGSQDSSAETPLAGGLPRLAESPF

Row | Binder | cAMP antagonism % inhib [%] | cAMP antagonism IC50 [nM] | cAMP antagonism index
4 | B2 | 100 | 15 | 1

molecular target: T1, human GIP receptor; assay: cell-based or functional assay

Row | Binder | CisBio cAMP antagonism % inhib [%] | CisBio cAMP antagonism IC50 [nM] | cAMP antagonism IC50 [nM] | cAMP antagonism % inhib [%]
5 | B1 | 84 | 31.6 | 16 | –
6 | B2 | 80 | 136 | 21 | –
7 | B4 | 96 | 68.1 | 1 | 93
8 | [pGlu]GTFISDYSIAMDRIK([AEEA-AEEA-AEEA-γGlu-C18 diacid])QQDFVNWLLAQR-NH2 [AT382] | 83 | 25.1 | 2 | 100
9 | B3 | 90 | 25.1 | 9 | 100

molecular target: T1, human GIP receptor; assay: cell-based or functional assay; remark: another data set of the same source

Row | Binder | cAMP antagonism % inhib [%] | cAMP antagonism IC50 [nM] | cAMP antagonism log IC50 [log M]
10 | B5 | 100 | 528 | -6.3
11 | B3 | 100 | 9 | -8.1

molecular target: T1, human GIP receptor; assay: cell-based or functional assay; remark: another data set of the same source

Row | Binder | CisBio cAMP agonism % Efficacy [%] | CisBio cAMP antagonism % inhib [%] | CisBio cAMP antagonism IC50 [nM] | CisBio cAMP antagonism pIC50 | DiscoveRx cAMP agonism Emax | DiscoveRx cAMP antagonism IC50 [nM] | DiscoveRx cAMP antagonism log IC50 [log M] | DiscoveRx cAMP antagonism % inhib [%]
12 | B1 | 8 | 84 | 31.6 | 7.5 | 9 | 16 | -7.8 | –
13 | B5 | 0 | 40 | 178 | 6.8 | – | – | – | –
14 | B2 | 5 | 80 | 136 | 6.9 | 4 | 21 | -7.7 | –
15 | [pGlu]GTFISDYSIAMDRIK(C16 diacid)QQDFVNWLLAQR-NH2 [AT390] | 4 | 81 | 15.9 | 7.8 | – | 1 | -9.1 | 100
16 | B4 | – | – | – | 7.2 | – | – | -9.2 | –
17 | [pGlu]GTFISDYSIAMDRIK([AEEA-AEEA-AEEA-γGlu-C18 diacid])QQDFVNWLLAQR-NH2 [AT382] | 0 | 83 | 25.1 | 7.6 | – | 2 | -8.7 | 100
18 | B3 | 0 | 90 | 25.1 | 7.6 | – | – | – | –
19 | [pGlu]GTFISDYSIAMDRIK([AEEA-AEEA-AEEA-γGlu-C16 diacid])QQDFVNWLLAQR-NH2 [AT380] | 8 | 82 | 85.8 | 7.1 | – | 7 | -8.1 | 100

molecular target: T1, human GIP receptor; assay: cell-based or functional assay; remark: another data set of the same source

Row | Binder | cAMP antagonism IC50 (finer than Table 1B) [nM]
20 | [pGlu]GTFISDYSIAMDRIK(C16 diacid)QQDFVNWLLAQR-NH2 [AT390] | 0.8
21 | B4 | 0.6
22 | [pGlu]GTFISDYSIAMDRIK([AEEA-AEEA-AEEA-γGlu-C18 diacid])QQDFVNWLLAQR-NH2 [AT382] | 1.8
23 | [pGlu]GTFISDYSIAMDRIK([AEEA-AEEA-AEEA-γGlu-C16 diacid])QQDFVNWLLAQR-NH2 [AT380] | 7.3
